# Laboratory results from paper PMC6133773.
# Tests used:
# purified protein [1] = substrate: C[C@](O)(CO)[C@H](O)CC(F)(F)P(=O)(O)O; test: purified protein; conditions: Mg2+; CTP active site (alternative substrate)
# purified protein [2] = substrate: C[C@](O)(CO)[C@H](O)C[C@H](F)P(=O)(O)O; test: purified protein; conditions: Mg2+; CTP active site (alternative substrate)
# purified protein [3] = substrate: C[C@](O)(CO)[C@H](O)CCP(=O)(O)O; test: purified protein; conditions: Mg2+; CTP active site (alternative substrate)
# purified protein [4] = substrate: C[C@](O)(CO)[C@H](O)C=C(F)P(=O)(O)O; test: purified protein; conditions: Mg2+; CTP active site (alternative substrate)
# purified protein [5] = substrate: C[C@](O)(CO)[C@H](O)C=CP(=O)(O)O; test: purified protein; conditions: Mg2+; CTP active site (alternative substrate)
# [6] = substrate: C[C@](O)(CO)[C@H](O)COP(=O)(O)O; test: Michaelis-Menten kinetics; format: biochemical, Escherichia coli; conditions: Mg2+; CTP active site; natural substrate
protein,measurement,setting,value
IspD (Escherichia coli K-12) (protein) ATTHLDVCAVVPAAGFGRRMQTECPKQYLSIGNQTILEHSVHALLAHPRVKRVVIAISPGDSRFAQLPLANHPQITVVDGGDERADSVLAGLKAAGDAQWVLVHDAARPCLHQDDLARLLALSETSRTGGILAAPVRDTMKRAEPGKNAIAHTVDRNGLWHALTPQFFPRELLHDCLTRALNEGATITDEASALEYCGFHPQLVEGRADNIKVTRPEDLALAEFYLTRTIHQENT,Km,purified protein [1],1900 ± 700 µM
same,kcat,purified protein [1],0.2 ± 0.0333 s⁻¹
same,kcat/Km,purified protein [1],110 M⁻¹ s⁻¹
same,Km,purified protein [2],1000 ± 100 µM
same,kcat,purified protein [2],0.217 ± 0.01 s⁻¹
same,kcat/Km,purified protein [2],220 M⁻¹ s⁻¹
same,Km,purified protein [3],1300 ± 200 µM
same,Km,purified protein [4],700 ± 500 µM
same,Km,purified protein [5],4000 ± 1000 µM
same,kcat,purified protein [5],0.09 ± 0.01 s⁻¹
same,kcat/Km,purified protein [5],20 M⁻¹ s⁻¹
same,Km,[6],100 ± 20 µM
same,kcat,[6],18.2 ± 1 s⁻¹
same,kcat/Km,[6],180000 M⁻¹ s⁻¹
